For test [1], the target named is MMP-9 catalytic domain (Homo sapiens) (UniProt P14780). Particulars: cited from earlier work.
Test [2] concerns the target V3, soluble IL-17RA (extracellular domain of the IL-17A receptor with point mutations that increase affinity for IL-17A). Nature of the test: BLI; Octet Red; HD_(N-TIMP2,V3) or V3 loaded on Protein A sensors (10 ug/ml, 300 s); IL-17A or MMP-9CAT in solution at 50, 100, 200 nM; 300 s association, 1800-2500 s dissociation; 30 C; PBS, 1% BSA, 0.05% Tween; 1:1 binding model. (In general: In BLI a coated tip is dipped into the sample, and binding shifts an interference pattern.)

The target in test [3] is HD_(N-TIMP2,V3) bi-specific heterodimer (N-TIMP2 fused by a linker to V3, the engineered soluble extracellular domain of the IL-17A receptor, with human IgG1 Fc and 6xHis). Described as above.

IL-17A (interleukin-17A), sequence (Q16552 24-155): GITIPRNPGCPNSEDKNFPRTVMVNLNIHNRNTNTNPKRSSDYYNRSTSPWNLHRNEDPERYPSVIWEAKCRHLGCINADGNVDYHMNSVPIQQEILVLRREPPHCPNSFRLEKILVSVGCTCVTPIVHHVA
MMP-9 catalytic domain (Homo sapiens), sequence (P14780 107-443): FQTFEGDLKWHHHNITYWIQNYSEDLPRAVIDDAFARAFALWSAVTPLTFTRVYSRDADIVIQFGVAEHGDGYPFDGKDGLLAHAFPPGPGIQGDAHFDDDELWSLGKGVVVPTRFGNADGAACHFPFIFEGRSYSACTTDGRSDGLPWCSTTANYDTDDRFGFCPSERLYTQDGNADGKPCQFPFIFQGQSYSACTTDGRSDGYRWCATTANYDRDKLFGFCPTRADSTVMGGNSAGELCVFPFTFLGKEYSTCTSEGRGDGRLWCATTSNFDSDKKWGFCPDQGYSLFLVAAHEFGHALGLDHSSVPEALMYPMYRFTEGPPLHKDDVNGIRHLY
N-TIMP2 N-terminal domain, sequence (P16035 27-153): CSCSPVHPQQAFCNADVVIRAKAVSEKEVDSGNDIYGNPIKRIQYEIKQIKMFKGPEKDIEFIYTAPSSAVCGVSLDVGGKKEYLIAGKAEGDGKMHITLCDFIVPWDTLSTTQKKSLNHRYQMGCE

Broadly, the Ki is a measure of affinity in units of concentration, obtained from inhibition or displacement. In the case of “N-TIMP2 N-terminal domain (from UniProt P16035)”, the inhibition constant Ki in test [1] is 0.1 nM.
What is called Kd is the equilibrium constant for the complex coming apart. Low readings indicate tighter binding, high ones weaker binding. Take “IL-17A (interleukin-17A) (from UniProt Q16552 24-155) (ligand)”: the Kd in test [2] amounted to 0.122 nM; in test [3] it was 0.048 nM.

These data come from article PMC6033355.
